The values below come from patent US20160046684A1, “Methods and compositions for treatment of PTP1B-related diseases” (BROWN UNIVERSITY, priority 2014, published 2016).

Residue numbers refer to the chain shown, from its start. Names may count otherwise. “Also recorded” adds a separate entry of the source.

The labels stand for the following.
B1: Wild-type PTP1B1-301: PTP1B catalytic domain, amino acid residues 1-301 (SEQ ID NO: 2) (protein)
chain: MEMEKEFEQIDKSGSWAAIYQDIRHEASDFPCRVAKLPKNKNRNRYRDVSPFDHSRIKLHQEDNDYINASLIKMEEAQRSYILTQGPLPNTCGHFWEMVWEQKSRGVVMLNRVMEKGSLKCAQYWPQKEEKEMIFEDTNLKLTLISEDIKSYYTVRQLELENLTTQETREILHFHYTTWPDFGVPESPASFLNFLFKVRESGSLSPEHGPVVVHCSAGIGRSGTFCLADTCLLLMDKRKDPSSVDIKKVLLEMRKFRMGLIQTADQLRFSYLAVIEGAKFIMGDSSVQDQWKELSHEDLEP
modifications: The sequence was designed and synthesized
B2: PTP1BYAYA: mutant of PTP1B1-301 having point mutations at Y152 and Y153 (Y152A/Y153A) within the L11 loop (protein)
chain: B1 chain with Y152A, Y153A
modifications: The sequence was designed and synthesized
notes: mutant of PTP1B1-301 having point mutations at Y152 and Y153 (Y152A/Y153A) within the L11 loop
B3: PTP1BY152A: PTP1B1-301 mutant with mutation in the L11 loop (protein, UniProt P18031 1-301, looked up, variant Y152A)
chain: B1 chain with Y152A
B4: PTP1BL192A: PTP1B1-301 mutant with mutation in the α3 helix (protein)
chain: B1 chain with L192A
modifications: The sequence was designed and synthesized
notes: PTP1B1-301 mutant with mutation in the α3 helix
B5: PTP1BY153A: PTP1B1-301 mutant with mutation in the L11 loop (protein, UniProt P18031 1-301, looked up, variant Y153A)
chain: B1 chain with Y153A
B6: PTP1BN193A: PTP1B1-301 mutant with mutation in the α3 helix (protein)
chain: B1 chain with N193A
modifications: The sequence was designed and synthesized
notes: as for B4
B7: PTP1B1-284/Δ7: truncated PTP1B, residues 1-284, lacking the α7 helix (SEQ ID NO: 3) (protein)
chain: MEMEKEFEQIDKSGSWAAIYQDIRHEASDFPCRVAKLPKNKNRNRYRDVSPFDHSRIKLHQEDNDYINASLIKMEEAQRSYILTQGPLPNTCGHFWEMVWEQKSRGVVMLNRVMEKGSLKCAQYWPQKEEKEMIFEDTNLKLTLISEDIKSYYTVRQLELENLTTQETREILHFHYTTWPDFGVPESPASFLNFLFKVRESGSLSPEHGPVVVHCSAGIGRSGTFCLADTCLLLMDKRKDPSSVDIKKVLLEMRKFRMGLIQTADQLRFSYLAVIEGAKFIMGD
modifications: The sequence was designed and synthesized
B8: PTP1BW291A: PTP1B1-301 mutant with point mutation in the α7 helix (protein, UniProt P18031 1-301, looked up, variant W291A)
chain: B1 chain with W291A
B9: PTP1BS295A/E297A: PTP1B1-301 double mutant in the α7 helix (protein, UniProt P18031 1-301, looked up, variant S295A E297A)
chain: B1 chain with S295A, E297A
B10: PTP1BS295A: PTP1B1-301 mutant with point mutation in the α7 helix (protein, UniProt P18031 1-301, looked up, variant S295A)
chain: B1 chain with S295A

The first data set has as its target T1, PTP1B1-301 (Homo sapiens, UniProt P18031).
T1 construct: His6 (cleaved yes); made in house; host or cells: E. coli
T1 sequence (P18031 1-301): B1 chain
The experiment in a line: NMR relaxation (R1, R2, hetNOE) of inhibitor-bound PTP1B1-301. Particulars: 1:3 ratio of PTP1B1-301 to inhibitor, compared to apo PTP1B1-301. As to the method:
Inhibitors were titrated into 200 μM ^15N-PTP1B at molar ratios of 1:1; 1:2, 1:3, 1:5 and 2D [^1H, ^15N] TROSY spectra at 850 MHz were recorded for each titration point. Inhibitors were solubilized in D6-DMSO at 25 mM. CS for PTP1B in the 2D [^1H, ^15N] TROSY spectrum caused by the addition of D6-DMSO were negligible. Chemical shift differences (Δδ) between PTP1B and inhibitor-bound PTP1B (3:1 molar ratio) spectra were calculated using: […]
Changes in motions of the domains of PTP1B1-301 bound to TCS-401 were measured by detecting nuclear relaxation time data at 500 MHz. See, FIG. 8A and FIG. 8B. Fast-timescale backbone dynamics were measured for ligand-free and inhibitor-bound (at 3:1 molar ratios) PTP1B constructs at either 850 or 500 MHz 1H Larmor frequency. ^15N longitudinal (R1) and transverse (R2) relaxation rates and ^15N [^1H]-NOE (hetNOE) measurements were acquired. The hetNOE measurements were determined from a pair of interleaved spectra acquired with or without pre-saturation, and a recycle delay of 5 seconds (only at 500 MHz ^1H Larmor frequency). Error was determined using signal to noise ratio for a given peak.
For `O=C(O)C(=O)Nc1sc2c(c1C(=O)O)CCNC2` [TCS-401], the “effect of inhibitor binding on PTP1B1-301 ps-ns backbone dynamics” value is “loss of motions in the α7 helix and part of the WPD loop”.

Consider `CCc1oc2cc(S(=O)(=O)Nc3ccc(S(=O)(=O)Nc4nccs4)cc3)ccc2c1C(=O)c1cc(Br)c(O)c(Br)c1` [allosteric site inhibitor, 3-(3,5-Dibromo-4-hydroxy-benzoyl)-2-ethyl-benzofuran-6-sulfonic acid-(4-(thiazol-2-ylsulfamyl)-phenyl)-amide], for which the “effect of inhibitor binding on PTP1B1-301 ps-ns backbone dynamics” value is reported as “minimal effect”.

Test system in a further data set: not listed separately
Description: Circular dichroism thermal denaturation (melting temperature). The class given is physicochemical. Particulars: CD spectropolarimetry, thermal denaturation at 208 nm, 2.5 μM protein. As to the method:
Circular dichroism (CD) spectropolarimetry was used to measure the melting temperatures of PTP1BYAYA, PTP1B1-301, and PTP1B1-284. CD measurements were performed on a Jasco J-815 CD spectropolarimeter. PTP1B samples were dialyzed at 4° C. into 10 mM sodium phosphate, pH 6.8, 150 mM NaCl. Samples were then diluted to a protein concentration of 2.5 μM and placed in a 0.2-cm glass cuvette. Wavelength scans were performed in the far-UV region from 260 to 195 nm at 25° C. at a speed of 20 nm/min. Thermal denaturation scans were performed at 208 nm from 25 to 90° C. at a scan speed of 1° C./min. Raw data were processed using the denatured protein analysis routine implemented in the SepctraAnalysis software and converted to mean residue molar ellipticity using the following equation: [θ]=θ/(10×C×1×n), where θ is ellipticity, C is the molar concentration, 1 is the cell path length in centimeters, and n is the number of residues. Plots are the average of three replicate scans.
(In general: CD spectra are sensitive to the conformation of chiral molecules.)
B1: the “melting point (Tm)” value stood at 55.46 °C.

With B2, the “melting point (Tm)” value was determined as 50.41 °C.

With B3, the “melting point (Tm)” value came to 53.89 °C.

In the case of B4, the “melting point (Tm)” value is 53.89 °C.

As to B5, the “melting point (Tm)” value came out at 53.75 °C.

B6: the “melting point (Tm)” value is 49.1 °C.

B7: the “melting point (Tm)” value was 54.9 °C.

The same data set, now with this note: CD spectropolarimetry, thermal denaturation at 208 nm, 2.5 μM protein; listed as PTP1B1-284.
In the case of B7, the “melting point (Tm)” value came to 54.87 °C.

The same data set, now with this note: difference to PTP1B1-284.
For B2, the “melting temperature lower than PTP1B1-284” value was “about 4.5 °C”.

Staying with this data set, now noted: difference to PTP1B1-301.
As to B2, the “melting temperature lower than for PTP1B1-301” value was “about 5 °C”.

For a further data set, the system named is PTP1B. The experiment in a line: Phosphatase activity of PTP1B constructs against pNPP (enzyme assay). Type of data set: biochemical, human. The following applies: FIG. 24, 25, 32B. As to the method: Phosphatase activity of PTP1B against the general PTP/DUSP substrate, p-nitrophenyl phosphate (pNPP), was tested in 50 mM HEPES pH 7.5, 150 mM NaCl, 0.5 mM TCEP. 40 μl of enzyme at a 1.5 μM concentration was added to 60 μl of pNPP substrate resuspended in the reaction buffer. See, FIG. 25. The final concentrations of pNPP used in this experiment were […]. The enzyme was incubated with the substrate at 30° C. for 30 min, after which 100 μl of 1 M NaOH was added to a final concentration of 0.5 M NaOH to quench the reaction. Absorbance was measured at 405 nm and the final concentration of p-nitrophenol (pNP) was calculated using the molar extinction coefficient of 18000 M-1 cm-1. A control reaction in which substrate was incubated in the absence of enzyme was subtracted from all other experimental values. All experiments were performed in triplicate.
Enzyme assays were performed at pH 7.5 with 0.15 μM PTP1B to compare the activities of wild-type PTP1B1-301 to mutants with mutations in the L11 loop: PTP1BY152A/F, PTP1BY153A/F, and PTP1BYAYA. See, FIG. 17. […] Ibid. […] Ibid. […] Ibid. […] Ibid. […] Ibid. […] Ibid.
Enzyme assays were performed at pH 7.5 with 0.015 μM PTP1B to compare the activities of wild-type PTP1B1-301 to mutants with mutations in the α3 helix such as PTP1BN193A. See, FIG. 27. […] Ibid. […] Ibid. […] Ibid. […] Ibid. […] Ibid. […] Ibid.
An enzyme assay was used to compare the activity of wild-type PTP1B1-301 to the activity of PTP1B1-284 P185G. See, FIG. 15. Enzyme assays were performed at pH 7.5 with 0.015 μM PTP1B to compare the activities of wild-type PTP1B1-301 to mutants with mutations in the α7 helix. See, FIG. 32A. In one embodiment, these point mutations were made in an amino acid sequence substantially similar to SEQ ID NO: 2.
Regarding B2, the “phosphatase activity compared with other constructs (in words)” value is listed as “much lower”.

Staying with this data set, now noted: FIG. 24, 25, 32B; listed as PTP1BΔ7.
With B7, the “phosphatase activity compared with other constructs (in words)” value was “lack the activity exhibited by wild-type PTP1B1; also recorded: much lower”.

Staying with this data set, now noted: pNPP substrate, pH 7.5, 0.015 μM PTP1B (FIG. 27, 32A, 32B).
One may read the Km as the substrate concentration at which the rate is half of its maximum. In general, kcat refers to the number of substrate molecules converted per active site and unit of time at saturation. Regarding B1, the Km turned out to be 460 ± 60 µM and the kcat was determined as 6.2 ± 0.3 s⁻¹.

With B8, the Km is 990 ± 150 µM and the kcat was 4.5 ± 0.3 s⁻¹.

With B4, the Km came to 610 ± 40 µM and the kcat was 1.86 ± 0.04 s⁻¹.

With B9, the Km worked out at 580 ± 130 µM and the kcat was 2.6 ± 0.13 s⁻¹.

B6: the Km turned out to be 830 ± 70 µM and the kcat came out at 1.7 ± 0.06 s⁻¹.

Consider B10, for which the Km stood at 800 ± 70 µM and the turnover number (kcat) came to 4.5 ± 0.1 s⁻¹.

Consider B7, for which the Km worked out at 970 ± 100 µM and the kcat was 1.7 ± 0.07 s⁻¹.

Still in this data set, the particulars now being: pNPP substrate, pH 7.5, 0.15 μM PTP1B (FIG. 17).
Consider B1, for which the Michaelis constant (Km) stood at 460 ± 60 µM and the kcat worked out at 6.2 ± 0.3 s⁻¹.

Turning to B2, the Km was 450 ± 40 µM and the kcat is 1.8 ± 0.05 s⁻¹.

B3: the Km came to 960 ± 40 µM and the kcat stood at 3.0 ± 0.06 s⁻¹.

Regarding B5, the Michaelis-Menten constant (Km) worked out at 930 ± 180 µM and the kcat was 3.6 ± 0.29 s⁻¹.
